One series deals with T1, PhLOX2 (Pyropia haitanensis, UniProt R9UEL2).
T1 construct: gene lox2; monomer by size exclusion
The experiment in a line: UV absorbance of conjugated diene at […] nm, Lineweaver-Burk. Particulars: pH 8.0, 20°C, 12 μM enzyme, substrate 20-200 μM; O2 co-substrate. In kind it is biochemical.

Substrate in series [1]: CCCCC/C=C\C/C=C\C/C=C\C/C=C\CCCC(=O)O
The experiment in a line: purified protein. The format is biochemical, Pyropia haitanensis. As to conditions: pH 8.0, 20°C, 12 μM enzyme, substrate 20-200 μM, O2 co-substrate.

Substrate in series [2]: CC/C=C\C/C=C\C/C=C\C/C=C\C/C=C\C/C=C\CCC(=O)O
Description: purified protein. In kind it is biochemical, Pyropia haitanensis. As to conditions: pH 8.0, 20°C, 12 μM enzyme, substrate 20-200 μM, O2 co-substrate.

Substrate in series [3]: CC/C=C\C/C=C\C/C=C\C/C=C\C/C=C\CCCC(=O)O
Description: purified protein. The format is biochemical, Pyropia haitanensis. Particulars: pH 8.0, 20°C, 12 μM enzyme, substrate 20-200 μM, O2 co-substrate.

On to `CCCCC/C=C\C/C=C\C/C=C\CCCCC(=O)O` [GLA], for which, at PhLOX2, the Km is 151 µM.

B1: PhLOX2 (Pyropia haitanensis) (protein)
chain: MAHTGTLGGSGCGQPLVAALKAHRTVVDGTIDAPVEAVWAKLRDFGGWPAWWPAMGATAVTPPGPPAVGQERAFTANGRSYVEALTWLDEGAHLLEYRLVSADPPLLDAGARTTFEAVPAGARSTRLTVECAFQPAYNVDAGVIRGGQTAAYESIMEGLQHALVEGPPLRPLRLTVTKNELRREVTAGHLLLTMGGVVLHRLRLTGAGTPVSADAVTVQLSRADAELRLELLDAKDTPVAAGSVAVGALTTPPVTHGVVLSNPHGDPVGTYTVSVVNAPPSSTVEAATALLFSLGKSLAEQLLQTVFFMGHDDGRWAYGEYTAADGTALTMPKYCAVLPPSQAIRPERLGQLFARNAEFLYAQAELLKLLVDTNPPGLEELPQAVRDKLAKEAALQKKIKERVTHEPSPFRLTFGGDHPAPERVIETWRDDEEQAAQMIRGINPMKLRRVTDAAAELPPAFHGLRDDAGRDVAALAAANALFYADYAELMVGELDEETGAYHHQAESAVLDSTVGGVKYWYAPRLVVYKTLAGKLSFLGFTLTRRGDAPGDDEMYTAAGTPPVRYTLAKIHLTCADNQVHQFVSHLGMTHLLAEPFIVAAHNVLPPSHIVSALLAVHFQDTIGINFLARQTLVSTVAPLTDATFSVGTGHALSIFAAAYDGWDFLGDNFVGALAKRGFTADAAADGLHDFYYREDGFRVWNALTRYVSTVLHGHYGAGTAADDAVAADPVLAAWCAEMRDPAAAGVASFPAAFTTVGALVEAVVSIIFLCSAQHAAVNFPQRDYVAYVPNRPDSVRLPMPPRPAAGADNDEAVVGATLPDVAVSVFQTLFAHLLTTPSDAPVSSYAALKEDHPAAWGAFTADLAQLQRDIEARNAALVAANEAPYPYLAPENMPLSIDI
notes: monomer by size exclusion
For the molecule B1, the figures for the Km in “purified protein [1]”, in the series “purified protein [2]” and in “purified protein [3]” were 114.17 µM, 91.59 µM and 54.09 µM, respectively. The catalytic constant (kcat) amounted to 47.5 s⁻¹ in the series “purified protein [1]”, 12.6 s⁻¹ in the series “purified protein [2]” and 62.5 s⁻¹ in the series “purified protein [3]”. For the same molecule, the kcat/Km in the series “purified protein [1]” turned out to be 416000 M⁻¹ s⁻¹; in the series “purified protein [2]” it was 138000 M⁻¹ s⁻¹; in “purified protein [3]”, 1.16e+06 M⁻¹ s⁻¹.

By Km is commonly meant the substrate concentration at which the rate is half of its maximum. Broadly, the kcat is the maximal rate divided by the concentration of active sites. In general, kcat/Km refers to the turnover number divided by the Michaelis constant.
